Data: PMC13385800 (2026)

B1: TBLR1-LgBiT wild type [not stated] / SETD5-SmBiT [not stated] (parent complex)
chain 1: MSISSDEVNFLVYRYLQESGFSHSAFTFGIESHISQSNINGALVPPAALISIIQKGLQYVEAEVSINEDGTLFDGRPIESLSLIDAVMPDVVQTRQQAYRDKLAQQQAAAAAAAAAAASQQGSAKNGENTANGEENGAHTIANNHTDMMEVDGDVEIPPNKAVVLRGHESEVFICAWNPVSDLLASGSGDSTARIWNLSENSTSGSTQLVLRHCIREGGQDVPSNKDVTSLDWNSEGTLLATGSYDGFARIWTKDGNLASTLGQHKGPIFALKWNKKGNFILSAGVDKTTIIWDAHTGEAKQQFPFHSAPALDVDWQSNNTFASCSTDMCIHVCKLGQDRPIKTFQGHTNEVNAIKWDPTGNLLASCSDDMTLKIWSMKQDNCVHDLQAHNKEIYTIKWSPTGPGTNNPNANLMLASASFDSTVRLWDVDRGICIHTLTKHQEPVYSVAFSPDGRYLASGSFDKCVHIWNTQTGALVHSYRGTGGIFEVCWNAAGDKVGASASDGSVCVLDLRK
chain 2: MSIAIPLGVTTSDTSYSDMAAGSDPESVEASPAVNEKSVYSTHNYGTTQRHGCRGLPYATIIPRSDLNGLPSPVEERCGDSPNSEGETVPTWCPCGLSQDGFLLNCDKCRGMSRGKVIRLHRRKQDNISGGDSSATESWDEELSPSTVLYTATQHTPTSITLTVRRTKPKKRKKSPEKGRAAPKTKKIKNSPSEAQNLDENTTEGWENRIRLWTDQYEEAFTNQYSADVQNALEQHLHSSKEFVGKPTILDTINKTELACNNTVIGSQMQLQLGRVTRVQKHRKILRAARDLALDTLIIEYRGKVMLRQQFEVNGHFFKKPYPFVLFYSKFNGVEMCVDARTFGNDARFIRRSCTPNAEVRHMIADGMIHLCIYAVSAITKDAEVTIAFDYEYSNCNYKVDCACHKGNRNCPIQKRNPNATELPLLPPPPSLPTIGAETRRRKARRKELEMEQQNEASEENNDQQSQEVPEKVTVSSDHEEVDNPEEKPEEEKEEVIDDQENLAHSRRTREDRKVEAIMHAFENLEKRKKRRDQPLEQSNSDVEITTTTSETPVGEETKTEAPESEVSNSVSNVTIPSTPQSVGVNTRRSSQAGDIAAEKLVPKPPPAKPSRPRPKSRISRYRTSSAQRLKRQKQANAQQAELSQAALEEGGSNSLVTPTEAGSLDSSGENRPLTGSDPTVVSITGSHVNRAASKYPKTKKYLVTEWLNDKAEKQECPVECPLRITTDPTVLATTLNMLPGLIHSPLICTTPKHYIRFGSPFIPERRRRPLLPDGTFSSCKKRWIKQALEEGMTQTSSVPQETRTQHLYQSNENSSSSSICKDNADLLSPLKKWKSRYLMEQNVTKLLRPLSPVTPPPPNSGSKSPQLATPGSSHPGEEECRNGYSLMFSPVTSLTTASRCNTPLQFELCHRKDLDLAKVGYLDSNTNSCADRPSLLNSGHSDLAPHPSLGPTSETGFPSRSGDGHQTLVRNSDQAFRTEFNLMYAYSPLNAMPRADGLYRGSPLVGDRKPLHLDGGYCSPAEGFSSRYEHGLMKDLSRGSLSPGGERACEGVPSAPQNPPQRKKVSLLEYRKRKQEAKENSAGGGGDSAQSKSKSAGAGQGSSNSVSDTGAHGVQGSSARTPSSPHKKFSPSHSSMSHLEAVSPSDSRGTSSSHCRPQENISSRWMVPTSVERLREGGSIPKVLRSSVRVAQKGEPSPTWESNITEKDSDPADGEGPETLSSALSKGATVYSPSRYSYQLLQCDSPRTESQSLLQQSSSPFRGHPTQSPGYSYRTTALRPGNPPSHGSSESSLSSTSYSSPAHPVSTDSLAPFTGTPGYFSSQPHSGNSTGSNLPRRSCPSSAASPTLQGPSDSPTSDSVSQSSTGTLSSTSFPQNSRSSLPSDLRTISLPSAGQSAVYQASRVSAVSNSQHYPHRGSGGVHQYRLQPLQGSGVKTQTGLS
B2: TBLR1-LgBiT wild type [not stated] / ANKRD11-SmBiT [not stated] (parent complex)
chain 1: B1 chain 1
chain 2: MPKGGCPKAPQQEELPLSSDMVEKQTGKKDKDKVSLTKTPKLERGDGGKEVRERASKRKLPFTAGANGEQKDSDTEKQGPERKRIKKEPVTRKAGLLFGMGLSGIRAGYPLSERQQVALLMQMTAEESANSPVDTTPKHPSQSTVCQKGTPNSASKTKDKVNKRNERGETRLHRAAIRGDARRIKELISEGADVNVKDFAGWTALHEACNRGYYDVAKQLLAAGAEVNTKGLDDDTPLHDAANNGHYKVVKLLLRYGGNPQQSNRKGETPLKVANSPTMVNLLLGKGTYTSSEESSTESSEEEDAPSFAPSSSVDGNNTDSEFEKGLKHKAKNPEPQKATAPVKDEYEFDEDDEQDRVPPVDDKHLLKKDYRKETKSNSFISIPKMEVKSYTKNNTIAPKKASHRILSDTSDEEDASVTVGTGEKLRLSAHTILPGSKTREPSNAKQQKEKNKVKKKRKKETKGREVRFGKRSDKFCSSESESESSESGEDDRDSLGSSGCLKGSPLVLKDPSLFSSLSASSTSSHGSSAAQKQNPSHTDQHTKHWRTDNWKTISSPAWSEVSSLSDSTRTRLTSESDYSSEGSSVESLKPVRKRQEHRKRASLSEKKSPFLSSAEGAVPKLDKEGKVVKKHKTKHKHKNKEKGQCSISQELKLKSFTYEYEDSKQKSDKAILLENDLSTENKLKVLKHDRDHFKKEEKLSKMKLEEKEWLFKDEKSLKRIKDTNKDISRSFREEKDRSNKAEKERSLKEKSPKEEKLRLYKEERKKKSKDRPSKLEKKNDLKEDKISKEKEKIFKEDKEKLKKEKVYREDSAFDEYCNKNQFLENEDTKFSLSDDQRDRWFSDLSDSSFDFKGEDSWDSPVTDYRDMKSDSVAKLILETVKEDSKERRRDSRAREKRDYREPFFRKKDRDYLDKNSEKRKEQTEKHKSVPGYLSEKDKKRRESAEAGRDRKDALESCKERRDGRAKPEEAHREELKECGCESGFKDKSDGDFGKGLEPWERHHPAREKEKKDGPDKERKEKTKPERYKEKSSDKDKSEKSILEKCQKDKEFDKCFKEKKDTKEKHKDTHGKDKERKASLDQGKEKKEKAFPGIISEDFSEKKDDKKGKEKSWYIADIFTDESEDDRDSCMGSGFKMGEASDLPRTDGLQEKEEGREAYASDRHRKSSDKQHPERQKDKEPRDRRKDRGAADAGRDKKEKVFEKHKEKKDKESTEKYKDRKDRASVDSTQDKKNKQKLPEKAEKKHAAEDKAKSKHKEKSDKEHSKERKSSRSADAEKSLLEKLEEEALHEYREDSNDKISEVSSDSFTDRGQEPGLTAFLEVSFTEPPGDDKPRESACLPEKLKEKERHRHSSSSSKKSHDRERAKKEKAEKKEKGEDYKEGGSRKDSGQYEKDFLEADAYGVSYNMKADIEDELDKTIELFSTEKKDKNDSEREPSKKIEKELKPYGSSAINILKEKKKREKHREKWRDEKERHRDRHADGLLRHHRDELLRHHRDEQKPATRDKDSPPRVLKDKSRDEGPRLGDAKLKEKFKDGAEKEKGDPVKMSNGNDKVAPSKDPGKKDARPREKLLGDGDLMMTSFERMLSQKDLEIEERHKRHKERMKQMEKLRHRSGDPKLKEKAKPADDGRKKGLDIPAKKPPGLDPPFKDKKLKESTPIPPAAENKLHPASGADSKDWLAGPHMKEVLPASPRPDQSRPTGVPTPTSVLSCPSYEEVMHTPRTPSCSADDYADLVFDCADSQHSTPVPTAPTSACSPSFFDRFSVASSGLSENASQAPARPLSTNLYRSVSVDIRRTPEEEFSVGDKLFRQQSVPAASSYDSPMPPSMEDRAPLPPVPAEKFACLSPGYYSPDYGLPSPKVDALHCPPAAVVTVTPSPEGVFSSLQAKPSPSPRAELLVPSLEGALPPDLDTSEDQQATAAIIPPEPSYLEPLDEGPFSAVITEEPVEWAHPSEQALASSLIGGTSENPVSWPVGSDLLLKSPQRFPESPKRFCPADPLHSAAPGPFSASEAPYPAPPASPAPYALPVAEPGLEDVKDGVDAVPAAISTSEAAPYAPPSGLESFFSNCKSLPEAPLDVAPEPACVAAVAQVEALGPLENSFLDGSRGLSHLGQVEPVPWADAFAGPEDDLDLGPFSLPELPLQTKDAADGEAEPVEESLAPPEEMPPGAPGVINGGDVSTVVAEEPPALPPDQASTRLPAELEPEPSGEPKLDVALEAAVEAETVPEERARGDPDSSVEPAPVPPEQRPLGSGDQGAEAEGPPAASLCAPDGPAPNTVAQAQAADGAGPEDDTEASRAAAPAEGPPGGIQPEAAEPKPTAEAPKAPRVEEIPQRMTRNRAQMLANQSKQGPPPSEKECAPTPAPVTRAKARGSEDDDAQAQHPRKRRFQRSTQQLQQQLNTSTQQTREVIQQTLAAIVDAIKLDAIEPYHSDRANPYFEYLQIRKKIEEKRKILCCITPQAPQCYAEYVTYTGSYLLDGKPLSKLHIPVIAPPPSLAEPLKELFRQQEAVRGKLRLQHSIEREKLIVSCEQEILRVHCRAARTIANQAVPFSACTMLLDSEVYNMPLESQGDENKSVRDRFNARQFISWLQDVDDKYDRMKTCLLMRQQHEAAALNAVQRMEWQLKVQELDPAGHKSLCVNEVPSFYVPMVDVNDDFVLLPA
B3: EGFP-ANKRD11 full length (FL), wild type [not stated] / endogenous TBLR1 of HEK293T cells and of wild-type Flp-In T-REx 293 cells [human (endogenous in HEK293T and Flp-In T-REx 293)] (parent complex)
chain 1: B2 chain 2
chain 2: B1 chain 1

Variants of: B1
Test: NanoLuc complementation assay; n = 6–7 independent transfections per TBLR1 mutant; read off a plot

Row | ratio to parent | Variant
1 | ~1.2 | chain 1 Y245C
2 | ~0.06 | chain 1 S459R
3 | ~0.87 | chain 1 Y395C
4 | ~1.1 | chain 1 Y446D
5 | ~0.05 | chain 1 L282P

The remaining lines, values behind:

Row | Variant | ratio to parent
6 | chain 1 H213Q | ~1.2
7 | chain 1 H441R | ~0.55
8 | chain 1 G460D | ~0.07
9 | chain 1 D328G | ~0.6
10 | chain 1 D370N | ~0.05
11 | chain 1 A311P | ~0.55
12 | chain 1 D369E | ~0.15

Variants of: B1
Test: co-immunoprecipitation, mass spectrometry; TBLR1-null Flp-In T-REx 293 cells; n = 3 independent transfections; read off a plot

Row | screen value [log2] | Variant
13 | ~6.9 | chain 1 D370N

Variants of: B2
Test: NanoLuc complementation assay; n = 3–5 independent transfections per TBLR1 mutant; read off a plot

Row | ratio to parent | Variant
14 | ~0.06 | chain 1 L83Q
15 | ~0.37 | chain 1 E63K
16 | ~0.07 | chain 1 G70D
17 | ~0.1 | chain 1 F10L
18 | ~0.06 | chain 1 G29D

Variants of: B2
Test: co-immunoprecipitation, mass spectrometry; TBLR1-null Flp-In T-REx 293 cells; n = 3 independent transfections; read off a plot

Row | screen value [log2] | Variant
19 | ~1.9 | chain 1 G70D

Variants of: B3
Test: co-immunoprecipitation, mass spectrometry; HEK293T cells; n = 3 independent transfections per mutant; read off a plot

Row | screen value [log2] | Variant
20 | ~8.3 | chain 1 S2475P
21 | ~8.2 | chain 1 L2605R
22 | ~5.7 | chain 1 R2523W
23 | ~2.6 | chain 1 E2522K
